Assay results reported in the supplement of paper PMC10567573.

B1: SLC35F2 (parent)
chain: QYLAERYKVNTPMLQSFINYCLLF
B2: RAB40B (parent)
chain: YSLTTSSTHKRSSLRKVKLVRPPQ

Variants of: B1
Experiment: protein stability index of a GFP-peptide fusion (GPS, HEK-293T) (PSI 1-6); higher = more stable
Details: c terminus: a fixed tail appended
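Note: lentivirally expressed fusions sorted by FACS into six bins by GFP to DsRed ratio, PSI derived from sequencing read proportions per bin multiplied by bin number.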

Protein stability index of substitutions, site by site:
F24: V 3.47, K 1.98, N 2.58, M 3.6, S 1.81, D 2.21, L 2.95, H 2.13, E 2.28, G 2.48, Y 3.33, R 2.88
A4: D 2.26, V 3.22, T 3.02, Y 2.38, N 3.76, C 3.16, W 2.53, R 2.53, G 3.01, P 2.88, E 2.76, L 3.42, Q 2.56, S 3.11, K 3.59
Y2: L 2.15, I 1.68, T 2.29, S 2.08, V 2.59, H 1.89, N 2.61, A 2.29, G 2.52, K 2.17, Q 1.97, D 1.83, W 2.26, F 3.47
Y7: M 1.62, L 2.35, C 3.12, N 2.89, E 2.03, G 3.27, R 1.55, K 2.53, A 3.17, H 2.95, Q 3.26, I 2.21, F 2.18
L14: E 2.45, A 2.37, H 2.11, M 3.31, N 2.12, Q 3.39, W 2.4, T 2.65, V 2.31, F 1.69, C 2.03, S 1.87, K 2.38, R 2.66, P 2.12, I 2.73, Y 3.03, G 2.08
Y20: T 2.27, H 2.97, I 2.62, A 3.18, F 3.1, L 2.94, Q 2.56, G 2.35, E 2.09, P 2.17, R 2.47, N 2.41, M 2.09, K 2.5
F17: K 2.65, V 3.29, Y 2.14, M 3.02, R 3.78, H 3.26, D 1.82, S 3.47, W 1.6, N 2.12, T 2.45
R6: C 2.86, V 2.92, A 2.7, W 2.51, D 1.99, M 2.25, Y 1.16, N 3.2, I 2.56, H 3.38, T 2.97, Q 2.34
N10: I 2.88, C 2.2, D 2.83, H 2.71, R 1.85, Y 2.75, F 2.88, W 2.29, Q 1.87, K 2.14, T 2.51
K8: E 2.04, G 2.38, A 2.54, H 2.64, S 3.15, T 2.43, N 2.22, L 2.87, V 2.61, W 2.55
L23: C 1.69, G 1.91, W 2.47, Y 2.86, D 2.96, F 2.96
P12: H 3.1, I 3.44, K 1.74, M 3.68, A 4.77, R 3.12, Y 3.33, Q 1.7, L 3.97, E 2.52, C 3.04, N 2.72, T 2.54, D 3.1
M13: K 2.04, S 2.93, Y 2.4, Q 2.02, G 2.2, H 2.59, W 1.9, I 2.52, V 3.22, C 3.76, E 2.99, R 2.64
C21: W 2.44, R 2.05, T 2.11, Q 2.3, L 2.52, G 2.33, S 2.67, I 2.06, E 1.65, A 3.53, Y 3.61, F 1.99
L22: C 1.89, Y 3.57, N 2.29, D 2.05, P 1.82, V 3.01, F 3.25, E 3.47, K 2.83, R 2.03, G 2.23, Q 2.44, M 2.85
T11: N 2.71, H 2.19, S 2.65, Y 3.51, C 3.08, K 2.21, P 1.8, I 2.6, V 2.5, A 2.13, F 2.04, Q 2.96, L 2.89, G 2.28
E5: Q 2.72, P 2.34, S 2.14, F 3.74, N 2.62, K 1.96, D 2.88, V 4.14, Y 2.14, M 4.24, I 3.06, L 2.72, R 3.95, H 3.1, W 2.54
N19: A 3.55, T 2.51, Y 2.31, D 2.49, Q 3.31, F 2.49, I 1.48, P 2.7, W 2.94, V 2.75, M 2.08, H 2.18
L3: I 3.32, C 2.93, M 2.5, S 2.5, V 2.34, Q 2.94, D 3, N 2.71, Y 2.34, R 2.98
Q15: N 2.61, L 3.28, G 3.36, Y 3.21, A 2.71, I 1.67, M 2.15, E 3.23, V 2.86, S 3.63, K 1.28, R 2.29
S16: N 2.36, I 3, C 2.44, V 3.01, P 3.19, D 3, H 1.83, R 2.63, T 1.72, A 2.43, Q 1.65, G 2.22, Y 1.79
Q1: A 2.56, D 3.23, F 2.37, E 1.97, Y 2.86, K 2.27, P 1.77, G 3.99, V 3.18, N 2.15, H 1.53, T 2.71, L 2.23, M 2.43
V9: A 1.65, C 2.68, G 2.3, K 2.37, Q 2.87, R 1.86, I 2.51, D 1.8, H 2.48, S 2.58, T 2.4, L 2.6, E 2.65, M 2.54
I18: W 2.53, H 2.9, S 2.34, F 1.98, L 2.96, T 2.82, V 1.34, M 2.56, C 3.62, K 1.99, G 1.92, A 1.93, Q 2.48

Variants of: B2
Experiment: as above
Details: c terminus: a fixed tail appended

Protein stability index: each site, then its substitutions
Y1: F 2.81, T 3.66, M 3.2, Q 3.82, W 3.19, G 3.75, E 4.12, P 3.97, L 3.15, R 3.94, A 3.99, V 2.74, N 4.04, I 3.15, K 3.61, C 3.16, H 3.46, D 4.11, S 4.16
S2: E 3.12, I 1.98, C 2.3, A 2.44, H 2.09, L 2.48, G 3.06, M 2.81, K 2.95, F 1.82, D 3.75
